Reference: patent publication US20220411487A1 (Regeneron, published 2022)

Assays:
[1] = target: T1, full length cynomolgous monkey TMPRSS6 on HEK293 cells (HEK293/mfTMPRSS6) (cynomolgous monkey/Macaca fascicularis, UniProt Q8IU80 10-811 (human entry)); test: cell-based or functional assay
T1 chain: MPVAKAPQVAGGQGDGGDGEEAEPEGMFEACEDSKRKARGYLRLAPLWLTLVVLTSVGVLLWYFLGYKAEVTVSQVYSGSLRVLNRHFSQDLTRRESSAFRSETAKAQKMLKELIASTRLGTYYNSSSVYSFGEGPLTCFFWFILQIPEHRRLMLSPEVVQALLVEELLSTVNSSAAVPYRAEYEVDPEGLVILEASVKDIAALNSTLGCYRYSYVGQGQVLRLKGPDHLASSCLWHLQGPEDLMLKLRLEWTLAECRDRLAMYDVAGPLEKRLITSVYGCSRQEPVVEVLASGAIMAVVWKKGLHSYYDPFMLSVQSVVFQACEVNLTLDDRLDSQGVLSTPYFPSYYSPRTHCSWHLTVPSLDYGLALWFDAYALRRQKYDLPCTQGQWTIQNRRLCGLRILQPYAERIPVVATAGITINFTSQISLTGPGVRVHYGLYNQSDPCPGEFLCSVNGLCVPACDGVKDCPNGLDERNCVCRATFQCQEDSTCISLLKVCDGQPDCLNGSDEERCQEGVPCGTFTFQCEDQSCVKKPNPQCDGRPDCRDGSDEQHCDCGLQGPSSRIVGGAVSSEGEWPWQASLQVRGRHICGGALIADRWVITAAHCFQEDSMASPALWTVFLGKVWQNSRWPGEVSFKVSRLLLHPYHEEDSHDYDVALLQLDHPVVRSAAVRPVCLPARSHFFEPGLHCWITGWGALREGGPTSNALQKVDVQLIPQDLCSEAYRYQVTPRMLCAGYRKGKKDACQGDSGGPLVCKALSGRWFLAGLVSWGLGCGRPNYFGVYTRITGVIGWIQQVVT

[2] = target: T2, mfTMPRSS6_S751A-MMH (Macaca fascicularis, UniProt Q8IU80 77-811 (human entry)); test: SPR, mAb captured via anti-hFc, 25 C
T2 construct: also called REGN5977; Macaca fascicularis TMPRSS6 extracellular domain with a S751A mutation and a C-terminal myc-myc-hexahistidine tag
T2 chain: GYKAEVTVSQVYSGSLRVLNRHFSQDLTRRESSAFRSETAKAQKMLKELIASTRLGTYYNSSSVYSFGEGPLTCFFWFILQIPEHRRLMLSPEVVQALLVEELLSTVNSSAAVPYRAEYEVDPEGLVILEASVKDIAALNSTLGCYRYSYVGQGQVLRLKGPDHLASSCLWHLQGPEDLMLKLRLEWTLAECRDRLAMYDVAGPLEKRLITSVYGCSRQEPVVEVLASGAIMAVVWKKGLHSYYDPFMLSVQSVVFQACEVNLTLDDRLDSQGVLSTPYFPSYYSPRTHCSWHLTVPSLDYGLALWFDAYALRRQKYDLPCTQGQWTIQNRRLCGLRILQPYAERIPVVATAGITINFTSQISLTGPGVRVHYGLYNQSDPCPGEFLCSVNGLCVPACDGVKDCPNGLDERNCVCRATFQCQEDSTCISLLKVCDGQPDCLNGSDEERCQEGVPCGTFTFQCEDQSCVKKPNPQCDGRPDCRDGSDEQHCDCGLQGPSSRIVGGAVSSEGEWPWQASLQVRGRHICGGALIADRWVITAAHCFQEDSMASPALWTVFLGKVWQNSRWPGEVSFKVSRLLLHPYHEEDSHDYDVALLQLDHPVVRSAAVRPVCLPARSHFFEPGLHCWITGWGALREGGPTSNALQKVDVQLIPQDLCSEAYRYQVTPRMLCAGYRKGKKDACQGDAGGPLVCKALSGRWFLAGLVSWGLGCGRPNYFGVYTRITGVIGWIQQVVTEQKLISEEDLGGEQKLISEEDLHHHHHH
Description: The equilibrium dissociation constant (KD) for TMPRSS6 binding to different TMPRSS6 monoclonal antibodies (mAbs) was determined using a real-time surface plasmon resonance biosensor using a Biacore 4000 instrument. All binding studies were performed in 10 mM HEPES, 150 mM NaCl, 3 mM EDTA, and 0.05% v/v Surfactant Tween-20, pH 7.4 (HBS-ET) running buffer at 25° C. and 37° C. The Biacore CM5 sensor chip surface was first derivatized by amine coupling with a human Fc specific mouse mAb to capture different TMPRSS6 mAbs. […] Different concentrations (100 nM to 3.7 nM, 3-fold serial dilution) of the TMPRSS6 reagent proteins prepared in HBS-EP running buffer were injected over the TMPRSS6 mAb captured surface for 150 seconds at a flow rate of 30 μL/min and their dissociation in HBS-ET running buffer was monitored for 10 minutes. At the end of each cycle, the TMPRSS6 mAb captured surface was regenerated using a 12 second injection of 20 mM phosphoric acid.
The association rate (kₐ) and dissociation rate (kd) were determined by fitting the real-time binding sensorgrams to a 1:1 binding model with mass transport limitation using Scrubber 2.0 (BioLogic Software) curve-fitting software. Binding dissociation equilibrium constant (KD) and dissociative half-life (t½) were calculated from the kinetic rates as: […]

Binder | % inhibition, HEK293 bioassay, overnight pre-incubation 37 C [1] [%] | IC50, HEK293 bioassay, overnight pre-incubation 37 C [1] [nM] | 100 nM Ag Bound [2] [RU] | Kd [2] [nM] | koff [2] [s⁻¹] | kon [2] [M⁻¹ s⁻¹] | t½ [2] [h]
REGN7969 (antibody, human IgG4 S228P, kappa, V domains shown, fully human; human IgG4 Fc with hinge S108P; also called mAb37746) VH: QVQLVESGGGVVQPGRSLRLSCAASGFTFNNYGMHWVRQAPGKGLEWVAIISYDGSNEYYSDSVKGRFTISRDNSKNTLYLQMNSLRAEDTAVYYCARDQDYGGNLFHYWGQGTLVTVSS VL: not shown | 89 | 13 | 92 | 0.435 | 0.000182 | 419000 | 1.05
REGN7971 (antibody, human IgG4 S228P, kappa, V domains shown, fully human; human IgG4 Fc with hinge S108P; also called mAb37763) VH: QVQLVESGGGVVQPGRSLRLSCAASGFTFSTYGMHWVRQAPGKGLEWVAIISYDGSNDYYLDSVKGRFTISRDNSKNTLYLQMNNLRAEDTAVYYCAKDQGYGGNLFASWGQGTLVTVSS VL: not shown | 89 | 6 | 109 | 0.283 | 0.000138 | 487000 | 1.4
REGN7977 (antibody, V domains shown, fully human; human IgG4 Fc with hinge S108P; also called mAb41465) VH: EVQLVESGGGLVKPGGSLRVSCAASGVTFSNVWMSWVRQVPGKGLEWVGRIKSKTDGGTTDYAAPVKGRFTISKDDSKNTLFLQMNSLKTEDTAVYYCTTETGDFWSGYYPRFQHWGQGTLVTVSS VL: DIQMTQSPSSLSASVGDRVTITCRASQYISTYLNWYQQKPGKAPSLLIYAASSLQSGVPSRFSGSGSGTDFTLTISSLQPEDFASYSCQQSYSTPPYTFGQGTKLEIKR | 81 | > 10 | 155 | 3.09 | 0.000697 | 225000 | 0.283
REGN7974 (antibody, human IgG4 S228P, kappa, V domains shown, fully human; human IgG4 Fc with hinge S108P; also called mAb41422) VH: EVQLVESGGGLVQPGRSLRLSCIASGFNFGDYGMSWVRQAPGKGLEWVGFIRSKAYGGTTEYAASVKGRFTISRDDSKSIAYLQMNSLKTEDAAMYYCSRDYYDILTGYYGDYWGQGTLVTVSS VL: not shown | 31 | > 10 | 188 | 7.18 | 0.00192 | 268000 | 0.1
REGN8023 (antibody, human IgG4 S228P, kappa, V domains shown, fully human; human IgG4 Fc with hinge S108P; also called mAb37699) VH: EVQLVESGGGLVKPGGSLRISCAASGFIFVDYAMHWVRQAPGKGLEWVSGISWNSGSIGYADSVKGRFTISRDNAKKSLYLQMSGLRPEDTALYYCVKSGFYYVRSYFDNWGQGTLVTVSS VL: DIVMTQSPLSLPVTPGEPASISCRSSQSLLDSDDGNTYLDWYLRKPGQSPQLLIYTLSYRASGVPDRFSGSGSGTDFTLKISRVEADDVGVYYCMQRIEFPLTFGGGTKVEIKR | 91 | 2.8 | 203 | 0.065 | 5.79e-05 | 891000 | 3.32
REGN7999 (antibody, human IgG4 S228P, kappa, V domains shown, fully human; human IgG4 Fc with hinge S108P; also called mAb41450) VH: EVQLVESGGGLVQPGGSLRLSCAASGFTFSSYAMTWVRQAPGKGLEWVSAISGSDTSTYYADSVKGRFTISRDNSKNTLFLQMNSLRAEDTAVYYCAKHQDYDFSYYYSAMDVWGQGTTVTVSS VL: DIQMTQSPSSLSASVGDRVIITCRASQDFNSWLAWYQQKPGKAPKLLIYAASSLQSGVPSRFSGSGSGTDFTLTISSLQPEDFATYYCQQTDSFPFTFGPGTKVDIKR | 91 | 21 | 185 | 0.11 | 7.23e-05 | 660000 | 2.67
